The text below walks through data of paper PMC7951975.

For the assay, the target named is GraS (native), fused to the T18 fragment of adenylate cyclase (Staphylococcus aureus) (UniProt Q2G0D9).
Chain of UniProt Q2G0D9 (Q2G0D9 whole entry, the tested form may be a part): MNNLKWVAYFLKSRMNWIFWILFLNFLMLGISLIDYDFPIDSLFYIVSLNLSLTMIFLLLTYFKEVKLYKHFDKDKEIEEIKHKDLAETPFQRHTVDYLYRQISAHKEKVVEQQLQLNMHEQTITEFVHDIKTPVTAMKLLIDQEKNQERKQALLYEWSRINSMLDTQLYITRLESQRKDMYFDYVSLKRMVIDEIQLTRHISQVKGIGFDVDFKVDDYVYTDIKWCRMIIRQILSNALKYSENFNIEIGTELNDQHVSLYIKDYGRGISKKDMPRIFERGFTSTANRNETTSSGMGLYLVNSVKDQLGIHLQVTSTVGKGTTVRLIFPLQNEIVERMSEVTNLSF

“EL peptide of VraG (wild type) (domain or fragment)”: the survival of the ΔEL vraG mutant of JE2 in a 2-hr. killing assay with 2.5 μg/ml LL-37 in the presence of ~300 ng exogenous EL peptide came out at 40%.
